# Measurements taken from paper PMC5932034 (2018).
# B1: cytoplasmic domain of Salmonella enterica serovar Typhimurium FlhA (FlhA^C) (domain or fragment)
# chain: SLGMEVGYRLIPMVDFQQDGELLGRIRSIRKKFAQDMGFLPPVVHIRDNMDLQPARYRILMKGVEIGSGDAYPGRWLAINPGTAAGTLPGEKTVDPAFGLDAIWIESALKEQAQIQGFTVVEASTVVATHLNHLIGQFSAELFGRQEAQQLLDRVSQEMPKLTEDLVPGVVTLTTLHKVLQNLLAEKVPIRDMRTILETLAEHAPLQSDPHELTAVVRVALGRAITQQWFPGNEEVQVIGLDTALERLLLQALQGGGGLEPGLADRLLAQTQEALSRQEMLGAPPVLLVNHALRPLLSRFLRRSLPQLVVLSNLELSDNRHIRMTATIGGK
# How the values were obtained:
# [1] = molecular target: fused FliT−FliD^C construct (FliD^C fused to the N terminus of FliT) (Salmonella enterica serovar Typhimurium …, UniProt P16328); assay: ITC
# [2] = molecular target: FliT−FliD chaperone–substrate complex (non-fused) (Salmonella enterica serovar Typhimurium …, UniProt P0A1N2 1-122; P16328 1-467); assay: ITC
# FliT−FliD chaperone–substrate complex (non-fused), sequence (P0A1N2 whole entry, chain 1 of 2, the tested form may be a part): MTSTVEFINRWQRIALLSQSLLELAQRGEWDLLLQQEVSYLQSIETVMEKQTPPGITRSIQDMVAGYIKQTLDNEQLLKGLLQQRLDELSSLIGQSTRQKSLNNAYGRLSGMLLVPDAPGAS
# FliT−FliD chaperone–substrate complex (non-fused), sequence (P16328 whole entry, chain 2 of 2, the tested form may be a part): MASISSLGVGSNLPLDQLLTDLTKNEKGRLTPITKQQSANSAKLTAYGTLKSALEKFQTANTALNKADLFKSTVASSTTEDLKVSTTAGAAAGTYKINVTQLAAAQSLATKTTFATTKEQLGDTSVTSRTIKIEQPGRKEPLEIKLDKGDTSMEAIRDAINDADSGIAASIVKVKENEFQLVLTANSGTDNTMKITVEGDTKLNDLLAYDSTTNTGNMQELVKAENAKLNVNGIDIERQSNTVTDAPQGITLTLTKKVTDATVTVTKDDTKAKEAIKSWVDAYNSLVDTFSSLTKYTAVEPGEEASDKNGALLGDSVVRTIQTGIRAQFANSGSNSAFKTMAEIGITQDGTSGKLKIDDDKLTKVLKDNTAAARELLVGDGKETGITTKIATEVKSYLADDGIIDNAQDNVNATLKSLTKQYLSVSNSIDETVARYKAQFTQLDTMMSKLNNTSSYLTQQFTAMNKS
binder,measurement,setting,value
B1,Kd,[1],~29 µM
same,Kd,[2],~25 µM
